According to patent US20260042834A1, “ANTI-CORTICOTROPIN-RELEASING HORMONE ANTIBODIES AND POLYCYSTIC OVARY SYNDROME” (HBM ALPHA THERAPEUTICS, INC., priority 2022, published 2026):

T1: biotinylated CRH (Homo sapiens, UniProt P06850)
T1 construct: purchased GL Biochem 784751
T1 sequence (P06850 154-194): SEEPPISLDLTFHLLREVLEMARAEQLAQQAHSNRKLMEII


Legend:
mouse CRHR2 = test: CRH-induced luciferase reporter blocking assay, CHO-CRE-mCRHR2 cells; type: cell-based
Procedure: To create CHO-CRE-hCRHR1, -hCRHR2, -mCRHR1, and -mCRHR2 reporter cell lines, pcDNA3.1-hCRHR1, -hCRHR2, -mCRHR1, and -mCRHR2 were introduced into CHO-CRE cells established above by electroporation as described above. Selection antibiotics hygromycin at 500 μg/ml and G418 at 1,000 μg/ml were employed. Individual established stable cell lines were characterized by both CRH and forskolin stimulation. […]
(§1) Cells were digested by trypsin-EDTA (Life technologies, Cat #:12604-013), centrifuged at 1,000 rpm for 5 min, resuspended in growth medium, counted using a cell counter, seeded at a concentration of 5,000 cells per 100 μl in 96-well flat plates, and incubated overnight. 50 μl of 4× serially diluted antibodies was added (8 points, 1/4 diluted by growth medium) to plates containing CHO-CRE-hCRHR1 cells, and 50 μl of 4×CRH (4× is 2 nM, final is 0.5 nM) was added. Similarly, 4×CRH (4× is 0.4 nM, final is 0.1 nM) was added to CHO-CRE-hCRHR2 cells and CHO-CRE-mCRHR1 cells, and 4×CRH (4× is 20 nM, final is 5 nM) was added to CHO-CRE-mCRHR2 cells. Next, plates were incubated 4-6 hours at 37° C. in a CO2 incubator. 60 μl of culture medium was removed, to which was added 60 μl of Bio-Glo luciferase, followed by incubation for 10 min at RT. Plates were read in a luciferase plate reader (EnVision, PerkinElmer).

human CRHR2 = test: CRH-induced luciferase reporter blocking assay, CHO-CRE-hCRHR2 cells; type: cell-based
Procedure: To create CHO-CRE-hCRHR1, -hCRHR2, -mCRHR1, and -mCRHR2 reporter cell lines, pcDNA3.1-hCRHR1, -hCRHR2, -mCRHR1, and -mCRHR2 were introduced into CHO-CRE cells established above by electroporation as described above. Selection antibiotics hygromycin at 500 μg/ml and G418 at 1,000 μg/ml were employed. Individual established stable cell lines were characterized by both CRH and forskolin stimulation.
Activated GPCR proteins increase production of the intracellular cAMP. CHO-CRE-human CRHR1 stable clone 11 was generated by introduction of pcDNA3.1-human CRHR1 under the selection of G418 and hygromycin. Human CRHR1 expression in CHO-CRE-hCRHR1 Clone 11 was confirmed by flow cytometry (data not shown). To further validate that the cell line was functional, CHO-CRE-hCRHR1 Clone 11 cells were treated with forskolin and CRH peptide. […] Subsequently CHO-CRE-hCRHR2 Clone 32, -mCRHR1 Clone 22, and -mCRHR2 Clone 8 cell lines were established using similar methodology and validated with CRH treatment (data not shown).
Blocking CRHR1 by small molecules or neutralization of CRH peptide can reduce luciferase expression if the CRH-CRHR1 system works in CHO-CRE-hCRHR1 cells. Antalarmin, a small molecule CRHR1 antagonist, blocked CRH-mediated luciferase expression in CHO-CRE-hCRHR1 Clone 11 (data not shown). Furthermore, sheep anti-CRH polyclonal antibody reduced CRH-mediated luciferase expression in these cells (data not shown). Likewise, sheep anti-CRH polyclonal antibody blocked CRH-mediated luciferase expression in CHO-CRE-hCRHR2, CHO-CRE-mCRHR1, and CHO-CRE-mCRHR2 cells (data not shown).
as §1

biotinylated CRH = target: T1, biotinylated CRH; test: Affinity determination with Octet; type: binding
Procedure: Octet® Red 96e was used for affinity measurement. Octet® running buffer was prepared by diluting kinetics buffer 10× (Fortebio, Cat #18-1105) in PBS according to the manufacturer's instructions. Two columns of SA sensors (Fortebio, Cat #18-5019) were hydrated in running buffer for 10 mins, one for ligand capturing and the other for reference. Antibodies were 2-fold diluted and added into a 96-well plate. 30 nM biotinylated CRH (GL Biochem, Cat #784751) was captured by the first column of SA sensors for 20 seconds, while reference sensors were dipped into buffer wells. After a 60-second baseline step, sensors were dipped into analyte and buffer wells successively, with the association and dissociation time of 180 seconds and 800 seconds, respectively. Sensors were regenerated in glycine pH1.5 (Cytiva, Cat #BR-1003-54) before the next cycle. […] Signals of reference wells and reference sensors were subtracted by selecting “Double reference” before data fitting.

[1] = CHO-CRE-hCRHR2 cells, 0.1 nM CRH

Molecule	IC50 (mouse CRHR2; CHO-CRE-mCRHR2 cells, 5 nM CRH)	IC50 (mouse CRHR2; Table 9, mCrhr2)	IC50 (human CRHR2; [1])	IC50 (human CRHR2; Table 9, hCRHR2)	kdis (biotinylated CRH)	kon (biotinylated CRH)
PR302341-20: humanized variant of Series 10 mAb PR302341; VH SEQ ID NO: 283, VL SEQ ID NO: 340 (antibody, V domains shown, PR302341-15 VH, PR302341-20 VH, PR302341-70 VH, PR302341-71 VH,PR302341-72 VH; PR302341-19 VL, PR302341-20 VL, PR302341-21 VL, PR302341-22 VL,PR302341-23 VL, PR302341-28 VL, PR302341-29 VL, PR302341-2 VL,PR302341-41 VL, PR302341-55 VL, PR302341-56 VL, PR302341-57 VL,PR302341-) VH: QVQLVQSGAEVKKPGASVKVSCKASGYTFTDYFMKWVRQAPGQRLEWMGVINPNNGDIFYNQKFKGRVTITRDTSASTAYMELSSLRSEDTAVYYCARGTDRALFAYWGQGTLVTVSS VL: DVVMTQSPLSLPVTLGQPASISCRSGQSIVHSDGNTYLEWYQQRPGQSPRLLIYKVSNRFSGVPDRFSGSGSGTDFTLKISRVEAEDLGVYYCFQGSHIPWTFGGGTKVEIK	0.602 nM	1.98 nM	0.263 nM	1.21 nM		
PR302341-21: humanized variant of Series 10 mAb PR302341; VH SEQ ID NO: 284, VL SEQ ID NO: 340 (antibody, V domains shown, PR302341-16 VH, PR302341-21 VH, PR302341-24 VH, PR302341-25 VH; PR302341-19 VL, PR302341-20 VL, PR302341-21 VL, PR302341-22 VL,PR302341-23 VL, PR302341-28 VL, PR302341-29 VL, PR302341-2 VL,PR302341-41 VL, PR302341-55 VL, PR302341-56 VL, PR302341-57 VL,PR302341-) VH: QVQLVQSGAEVKKPGASVKVSCKASGYTFTDYFMKWVRQAPGQRLEWMGVINPNNGDIFYNQKFKGRVTITVDKSASTAYMELSSLRSEDTAVYYCARGTDRALFAYWGQGTLVTVSS VL: DVVMTQSPLSLPVTLGQPASISCRSGQSIVHSDGNTYLEWYQQRPGQSPRLLIYKVSNRFSGVPDRFSGSGSGTDFTLKISRVEAEDLGVYYCFQGSHIPWTFGGGTKVEIK	0.633 nM		0.272 nM			
PR302341-23: humanized variant of Series 10 mAb PR302341; VH SEQ ID NO: 286, VL SEQ ID NO: 340 (antibody, V domains shown, PR302341-18 VH, PR302341-23 VH, PR302341-26 VH, PR302341-27 VH,PR302341-30 VH, PR302341-31 VH, PR302341-42 VH; PR302341-19 VL, PR302341-20 VL, PR302341-21 VL, PR302341-22 VL,PR302341-23 VL, PR302341-28 VL, PR302341-29 VL, PR302341-2 VL,PR302341-41 VL, PR302341-55 VL, PR302341-56 VL, PR302341-57 VL,PR302341-) VH: QVQLVQSGAEVKKPGASVKVSCKASGYTFTDYFMKWVRQAPGQGLEWMGVINPNNGDIFYNQKFKGRVTMTVDKSISTAYMELSRLRSDDTAVYYCARGTDRALFAYWGQGTLVTVSS VL: DVVMTQSPLSLPVTLGQPASISCRSGQSIVHSDGNTYLEWYQQRPGQSPRLLIYKVSNRFSGVPDRFSGSGSGTDFTLKISRVEAEDLGVYYCFQGSHIPWTFGGGTKVEIK	0.501 nM	1.37 nM	0.127 nM	1.38 nM		
PR302341-24: humanized variant of Series 10 mAb PR302341; VH SEQ ID NO: 284, VL SEQ ID NO: 336 (antibody, V domains shown, PR302341-16 VH, PR302341-21 VH, PR302341-24 VH, PR302341-25 VH; PR302341-10 VL, PR302341-24 VL, PR302341-26 VL, PR302341-43 VL,PR302341-44 VL, PR302341-45 VL, PR302341-4 VL) VH: QVQLVQSGAEVKKPGASVKVSCKASGYTFTDYFMKWVRQAPGQRLEWMGVINPNNGDIFYNQKFKGRVTITVDKSASTAYMELSSLRSEDTAVYYCARGTDRALFAYWGQGTLVTVSS VL: DVVMTQTPLSSPVTLGQPASISCRSGQSIVHSDGNTYLEWYQQRPGQPPRLLIYKVSNRFSGVPDRFSGSGAGTDFTLKISRVEAEDLGVYYCFQGSHIPWTFGGGTKVEIK	~0.457 nM		0.099 nM			
PR302309: Series 7 anti-CRH mAb from immunized wildtype mice; VH SEQ ID NO: 260, VL SEQ ID NO: 317 (antibody, V domains shown, PR302309-1 VH, PR302309-2 VH, PR302309-3 VH, PR302309-4 VH,PR302309-5 VH, PR302309-6 VH, PR302309 VH; PR302309-13 VL, PR302309-14 VL, PR302309-15 VL, PR302309-16 VL,PR302309 VL) VH: QIQLVQSGPELKKPGETVKISCKASGYTFTNYGMNWVKQAPGKVLKWMGWINTYTGEPIYTDDFKGRFAFSLETSASTAYLQINNLKNEDTATYFCSRSTMITTGGVFAYWGQGTLVTVSA VL: DVLMAQTPLSLPVSLGDQASISCRSSQTIVHSDGNTYLEWYLQKPGQSPKLLIYKVSNRFSGVPDRFSGSGSGTDFTLKISRVEAEDLGVYYCFQGSHVPWTFGGGTKLEIK					4.03e-06 s⁻¹	263000 M⁻¹ s⁻¹
PR302334-11: humanized variant of Series 9 mAb PR302334; VH SEQ ID NO: 273, VL SEQ ID NO: 329 (antibody, V domains shown, PR302334-10 VH, PR302334-11 VH, PR302334-12 VH, PR302334-14 VH,PR302334-7 VH, PR302334-8 VH, PR302334-9 VH; PR302334-11 VL, PR302334-5 VL) VH: EVQLVESGGGLVQPGGSLRLSCAASGFTFSTYAMSWVRQAPGKGLEWVASIRSGGTTYYPDSVKGRFTISRDNSKNTLYLQMNSLRAEDTAVYYCTRGIDWGQGTTVTVSS VL: DIQMTQSSLSASVSLGDRVTITCKASQSVNNDVAWYQQKPGKAPRLLIYYASNRYTGVPSRFSGSGSGTDFTFTISSLQPEDIATYYCQQDYSSWTFGGGTKVEIK					<1e-07 s⁻¹	684000 M⁻¹ s⁻¹
PR302334-25: humanized variant of Series 9 mAb PR302334; VH SEQ ID NO: 275, VL SEQ ID NO: 330 (antibody, V domains shown, PR302334-16 VH, PR302334-24 VH, PR302334-25 VH; PR302334-12 VL, PR302334-25 VL, PR302334-27 VL, PR302334-6 VL) VH: EVQLVESGGGLVKPGGSLRLSCAASGFTFSTYAMSWVRQAPGKGLEWVASIRSGGTTYYPDSVKGRFTISRDNAKNSLYLQMNSLRAEDTAVYYCTRGIDWGQGTTVTVSS VL: DIQMTQSSLSASVSLGDRVTITCKASQSVNNDVAWYQQKPGKAPRLLIYYASNRYTGVPSRFSGSGSGTDFTFTISSLQPEDLATYFCQQDYSSWTFGGGTKVEIK					<1e-07 s⁻¹	285000 M⁻¹ s⁻¹
